Results as given in patent US20200024331A1 (published 2020).

Tests used:
[1] = biological target: Chikungunya virus-like particles (CHIKV VLP) (Chikungunya virus, UniProt Q8JUX5 810-1248; Q8JUX5 326-748); experiment: SPR
[2] = biological target: Chikungunya virus E1 protein (Chikungunya virus, UniProt Q8JUX5 810-1224); experiment: SPR
Chikungunya virus E1 protein, sequence (Q8JUX5 810-1224): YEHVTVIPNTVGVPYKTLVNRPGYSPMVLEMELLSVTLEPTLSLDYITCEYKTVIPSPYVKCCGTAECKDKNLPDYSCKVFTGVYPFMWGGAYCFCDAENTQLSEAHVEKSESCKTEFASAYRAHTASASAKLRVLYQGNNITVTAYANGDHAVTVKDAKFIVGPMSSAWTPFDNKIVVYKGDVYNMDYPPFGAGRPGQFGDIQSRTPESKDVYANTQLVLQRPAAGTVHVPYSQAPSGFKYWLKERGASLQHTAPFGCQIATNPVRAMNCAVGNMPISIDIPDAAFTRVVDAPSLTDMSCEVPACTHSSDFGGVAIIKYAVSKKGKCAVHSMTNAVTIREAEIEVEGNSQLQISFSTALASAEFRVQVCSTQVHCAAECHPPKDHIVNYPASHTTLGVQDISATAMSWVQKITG

Chikungunya virus-like particles (CHIKV VLP), sequence (Q8JUX5 810-1248, chain 1 of 2): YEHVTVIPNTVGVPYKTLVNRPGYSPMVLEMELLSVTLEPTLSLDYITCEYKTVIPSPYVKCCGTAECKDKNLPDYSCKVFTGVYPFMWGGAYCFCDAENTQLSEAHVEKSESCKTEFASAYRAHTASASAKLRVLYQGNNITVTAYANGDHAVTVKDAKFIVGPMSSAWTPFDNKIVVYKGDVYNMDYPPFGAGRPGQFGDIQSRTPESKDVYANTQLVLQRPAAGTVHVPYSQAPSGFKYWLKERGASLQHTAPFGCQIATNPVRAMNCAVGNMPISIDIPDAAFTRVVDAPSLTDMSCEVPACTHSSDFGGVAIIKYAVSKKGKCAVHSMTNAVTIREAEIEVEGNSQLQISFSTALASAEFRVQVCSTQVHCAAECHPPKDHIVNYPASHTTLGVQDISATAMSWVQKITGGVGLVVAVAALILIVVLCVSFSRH
Chikungunya virus-like particles (CHIKV VLP), sequence (Q8JUX5 326-748, chain 2 of 2): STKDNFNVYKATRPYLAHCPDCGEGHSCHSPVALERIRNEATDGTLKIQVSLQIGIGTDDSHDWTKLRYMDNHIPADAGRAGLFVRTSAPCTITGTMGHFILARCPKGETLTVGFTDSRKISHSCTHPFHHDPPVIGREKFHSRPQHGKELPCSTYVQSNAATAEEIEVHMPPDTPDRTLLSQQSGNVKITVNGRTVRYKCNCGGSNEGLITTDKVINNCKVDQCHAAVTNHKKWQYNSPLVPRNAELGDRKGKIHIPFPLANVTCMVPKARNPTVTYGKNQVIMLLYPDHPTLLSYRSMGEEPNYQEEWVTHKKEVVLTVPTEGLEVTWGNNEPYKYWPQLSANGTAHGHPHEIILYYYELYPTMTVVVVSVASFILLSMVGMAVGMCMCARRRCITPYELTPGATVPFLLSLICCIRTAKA

B1: CC3 (VHH)
VHH: EVQLQASGGGSVQAGGSLRLSCVTSQNLFEYYTMGWYRQVPGSQRERVALINNGGSTVAGSVEGRFTISRDHAKNSVYLQMNYLKPEDSAVYYCRAFGPADYWGQGTQVTVSS
In the case of B1, the Kd [1] is reported as 1.2 nM and the Kd [2] is reported as 3.04 nM.

B2: CA6 (VHH)
VHH: EVQLQASGGGLVRPGGSLRLSCAASGSFFTIDTMAWYRQAPGRRRELVARQSSGRSPDYDDSVVGRFTISRDIAKSSVYLQMDSLQPEDTALYYCYQSIRPWPGSSYEAHWGQGIQVIVSS
Work on B2 yielded a Kd [2] of 0.132 nM.
